Target: His-tagged human CD47 (human, UniProt Q08722 19-139)
Sequence (Q08722 19-139): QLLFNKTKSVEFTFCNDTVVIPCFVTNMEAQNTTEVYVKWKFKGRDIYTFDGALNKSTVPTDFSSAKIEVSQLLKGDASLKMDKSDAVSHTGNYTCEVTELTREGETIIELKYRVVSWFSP

Kd: 56 nM
B1: pNOVI V2K K33 (antibody, V domains shown)
VH: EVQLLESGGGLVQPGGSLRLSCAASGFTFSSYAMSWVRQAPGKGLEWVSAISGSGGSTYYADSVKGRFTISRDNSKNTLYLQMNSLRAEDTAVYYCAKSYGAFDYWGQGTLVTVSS
VL: DIQMTQSPSSLSASVGDRVTITCRASQSISSYLNWYQQKPGKAPKLLIYAASSLQSGVPSRFSGSGSGTDFTLTISSLQPEDFATYYCQQFHKRSPQKFGQGTKVEIKR

Source: patent publication US20240254223A1 (published 2024)
